Measurements reported in article PMC6662822, “Rational drug-design approach supported with thermodynamic studies — a peptide leader for the efficient bi-substrate inhibitor of protein kinase CK2” (Scientific Reports, 2019).
Where no end group is shown, it is not given here.

Assays:
Conditions in all cases: both partners purified
[1] = target: T1, catalytic subunit of human protein kinase CK2 (human, UniProt P68400 1-391, NT-647 dye (NanoTemper Protein Labeling Kit RED), in the MST experiments only); test: MST; hCK2α labelled with NT-647 dye, 50 nM; ligand 100 nM-10 mM; thermophoresis with temperature jump; global fit of three independent pseudo-titrations
T1 construct: catalytic subunit (alpha) of human protein kinase CK2; The His tag is named only for the pull-down (immobilised on cobalt resin); also called hCK2α; CK2α
T1 sequence (P68400 whole entry): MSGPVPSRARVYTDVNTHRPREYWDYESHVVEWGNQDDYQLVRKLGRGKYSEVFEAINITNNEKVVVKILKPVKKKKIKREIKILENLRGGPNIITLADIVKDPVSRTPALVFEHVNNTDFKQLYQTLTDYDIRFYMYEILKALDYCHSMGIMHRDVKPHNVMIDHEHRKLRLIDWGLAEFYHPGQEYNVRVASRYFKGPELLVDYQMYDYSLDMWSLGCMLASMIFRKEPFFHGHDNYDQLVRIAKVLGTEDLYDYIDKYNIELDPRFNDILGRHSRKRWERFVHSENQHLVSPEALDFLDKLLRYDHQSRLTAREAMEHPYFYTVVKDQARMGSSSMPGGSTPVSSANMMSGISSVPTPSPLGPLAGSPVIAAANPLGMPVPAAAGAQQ

[2] = target: T1, catalytic subunit of human protein …; test: other fluorescence titration; nanoDSF (Prometheus NT.48): 350 nm/330 nm fluorescence ratio at 25 °C (native protein) against peptide concentration; 2.5 μM hCK2α, peptide 300 nM-10 mM, 25 mM Tris-HCl pH 7, 0.5 M NaCl; single binding site model
[3] = target: T1, catalytic subunit of human protein …; test: other fluorescence titration; nanoDSF as a3, but data at 75 °C: unfolded form of hCK2α
[4] = target: T1, catalytic subunit of human protein …; test: MST; as a6, labelled hCK2α in the presence of TBBt (hCK2α/TBBt complex)
[5] = target: T1, catalytic subunit of human protein …; test: other fluorescence titration; nanoDSF as a3 (25 °C), hCK2α in the presence of TBBt (hCK2α/TBBt complex)

Row | Binder | Kd [1] | Kd [2] | Kd [3] | Kd [4] | Kd [5]
1 | RRRDDDSDDD (The supplier is named in the methods of the kinase assay; also called CK2 substrate peptide; source: bought: Biaffin GmbH & Co KG) | 2.1 ± 0.7 mM |  |  |  | 
2 | EETEEE-NH2 (source: synthetic peptide (solid-phase synthesis, purified by HPLC); in the pull-down as a member of the synthetic library) [EETEEE-NH2] |  | 960 ± 30 µM |  |  | 
3 | EESEEE-NH2 (source: synthetic peptide (solid-phase synthesis, purified by HPLC); in the pull-down as a member of the synthetic library) [EESEEE-NH2] |  | 1580 ± 60 µM |  |  | 
4 | KESEEE-NH2 (source: synthetic peptide (solid-phase synthesis, purified by HPLC)) [KESEEE-NH2] | 0.39 ± 0.21 mM | 350 ± 20 µM | ~1 mM | 360 ± 230 µM | 450 ± 20 µM
5 | KETEEE-NH2 (source: synthetic peptide (solid-phase synthesis, purified by HPLC); in the pull-down as a member of the synthetic library) [KETEEE-NH2] |  | 950 ± 50 µM |  |  | 
